Test results published in US20110269679A1, “INHIBITORS OF AMYLOID FIBRIL FORMATION AND USES THEREOF” (priority 2004, published 2011).
“Also recorded” adds a separate entry of the source.

What was measured:
[1] = molecular target: T1, IAPP 1-37 (Homo sapiens, UniProt P10997); experiment: Circular dichroism (CD): IAPP random coil to β-sheet conformational transition; conditions: for CD activity of modified or truncated tripeptides compared with ANF: significantly lower molar ratios than ANF
T1 sequence (P10997 34-70): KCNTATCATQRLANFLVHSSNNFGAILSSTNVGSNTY
Text: 1. Circular Dichroism (CD): Amyloidogenic peptides and proteins undergo a conformational transition from a native to β-sheet conformation. […] In the case of peptides such as Aβ and IAPP, the non-fibrillar forms are essentially random coils that subsequently convert to a β-sheet under different conditions of pH and concentration.
CD provides a global view of the peptide secondary structure over an extended time course that can be used to monitor the amyloid conformational transition (L e. , diagnostic absorption minima for β-conformation at 218 nm). IAPP is initially treated with hexafluroisopropanol (HFIP) and trifluroacetic acid (TFA), to ensure it is in a monomeric form. IAPP 1-37 (50 μM) in the presence of inhibitors (50 μM-1.0 mM) are compared to controls, with spectra collected twice daily for a period of 72 hours. (β-sheet conversion and precipitation occurs at 48-72 hrs depending on conditions used.) Inhibitors can be evaluated for their ability to maintain IAPP in a random or non-β conformation. This can be determined by direct comparisons of the spectra obtained, and by quantitative analyses using deconvolution algorithms (e.g., Jasco J720 spectropolarimeter contained in the inventor's laboratory, and equipped with Spectra Manager).

[2] = molecular target: T1, IAPP 1-37; experiment: Negative stain electron microscopy of IAPP amyloid fibrils; conditions: negatively-stained preparations, IAPP + peptide, molar ratio 1:10
Text: 2. Negative Stain Electron Microscopy: IAPP amyloid morphology and relative density of the fibrils can be examined by transmission EM techniques. This provides information of the morphology of the aggregates formed (e.g., amorphous, fibrillar, truncated/protofilament structures, and/or abnormal lateral aggregation profiles). In addition, scanning of multiple grids and samples can be performed by an experienced EM technician who will assess the relative amount of fibrils formed in the presence of each inhibitor. This supporting evidence can be used to rank the relative activities of the inhibitors. Aliquots are taken from the samples used for CD analysis, and applied to pioloform coated grids, blotted dry, and stained with phosphotungstic acid (pH 7.0).

[3] = system: rat insulinoma line (RIN-1056A) exposed to exogenous IAPP 1-37; experiment: IAPP amyloid toxicity assay in RIN cells (AlamarBlue cell viability); type: cell-based; conditions: molar ratio of 1:20 [IAPP:inhibitor]
Procedure: 3. IAPP Amyloid Toxicity: Amyloid fibril cytotoxicity may be due to an apoptotic mechanism and/or mechanical disruption of the plasma membrane. The ability of inhibitors to prevent toxicity in cells exposed to exogenous amyloid is another indication of activity that is assessed. A rat insulinoma line (RIN-1056A) having β-cell-like characteristics is exposed to 10 μM IAPP 1-37 with inhibitors added simultaneously to the medium at 1-20 fold excess. IAPP and inhibitors are not pre-mixed, but are added separately to the cell culture medium to maximize the similarities to conditions in vivo.
Toxicity is assayed both over the short (sampling every 2 hr over an 8-10 hr period) and long term (every 12 hr for a period of 6-7 days). Data from these investigations will indicate if the inhibitors are able to regulate this more physiological action of IAPP.

[4] = molecular target: T2, full-length IAPP1-37 (Homo sapiens, UniProt P10997); conditions: earlier work, Fraser WO 02/24727; cited from earlier work
T2 construct: When combined with full-length IAPP1-37 at relatively low molar ratios of 1:5 and 1:1
T2 sequence (P10997 34-70): T1 sequence (P10997 34-70)

Row | Substance | relative level/density and morphology of IAPP amyloid fibrils (EM) [2] | activity in the RIN-cell toxicity assay using exogenous IAPP [3] | inhibitory activity of hexapeptide fragments [4] | further results
1 | AGF: tripeptide ANF substituted with G at its second position (Tripeptide derived from human IAPP) | significantly reduced density of fibrils | more activity than ANG (SEQ. ID. NO. 27) or ANF (SEQ. ID. NO. 24) | – | CD activity of modified or truncated tripeptides compared with ANF [1]: similar, but more potent, activities at significantly lower molar ratios
2 | ANF: truncated tripeptide of hexapeptide ANFLVH, IAPP residues 13-15 (Tripeptide derived from human IAPP) | reduced the relative levels of fibrils, and altered the morphology of the aggregates which were formed; also recorded: reduced the relative levels of fibrils and altered the morphology of the aggregates which were formed | showed activity; also recorded: greater activity than the tetra- or penta-peptide | – | inhibition of IAPP conformational change from random coil to β-sheet (CD) ([1]; combined with IAPP at a molar ratio of 1:10): inhibited this conformational change
3 | ANFL: tetrapeptide sub-fragment of hexapeptide ANFLVH (Tetrapeptide derived from human IAPP) | – | showed activity | – | –
4 | ANFLV: pentapeptide sub-fragment of hexapeptide ANFLVH (Pentapeptide derived from human IAPP) | – | showed activity | – | –
5 | ANFLVH: original hexapeptide from the IAPP 8-20 domain (13-18), disclosed in WO 02/24727 (Hexapeptide derived from human IAPP) | – | – | displayed inhibitory activity | –
6 | ANG: tripeptide ANF substituted with G at its third position (Tripeptide derived from human IAPP) | lower activity based upon the presence of multiple aggregate forms | lower activity in the toxicity assay | – | –
7 | GAILSS: hexapeptide from the IAPP20-29 region, disclosed in WO 02/24727 (Hexapeptide derived from human IAPP) | – | – | displayed inhibitory activity | –
8 | GNF: tripeptide ANF substituted with G at its first position (Tripeptide derived from human IAPP) | significantly reduced density of fibrils | more activity than ANG (SEQ. ID. NO. 27) or ANF (SEQ. ID. NO. 24) | – | CD activity of modified or truncated tripeptides compared with ANF [1]: similar, but more potent, activities at significantly lower molar ratios
9 | NFL: truncated tripeptide of hexapeptide ANFLVH (Tripeptide derived from human IAPP) | active | – | – | CD activity of modified or truncated tripeptides compared with ANF [1]: similar, but more potent, activities at significantly lower molar ratios
10 | NFLVHS: hexapeptide from the IAPP 8-20 domain, disclosed in WO 02/24727 (Hexapeptide derived from human IAPP) | – | – | displayed inhibitory activity | –
11 | SNNFGA: hexapeptide from the IAPP20-29 region, disclosed in WO 02/24727 (Hexapeptide derived from human IAPP) | – | – | displayed inhibitory activity | –
